Test results from article PMC6959990.
Each block holds one substance with its values, some of them ahead of it.

Legend:
[1] = molecular target: PCAT1(C21A) (Clostridium thermocellum) (UniProt A3DCU1); experiment: native MS; in 200 mM ammonium acetate pH 7.5 with 0.5% C8E4 (2X CMC); 4 µM PCAT1 monomer alone, or 4 µM PCAT1(C21A) monomer + 8 µM CtA (two-fold excess of CtA); abundances corrected for gas-phase dissociation
[2] = molecular target: PCAT1(C21A) (Clostridium thermocellum) (UniProt A3DCU1); experiment: cryo-EM structure; PCAT1(C21A) (5 mg/ml, 62 µM monomer) mixed with 62 µM refolded CtA, 30 min on ice, in UDM, no ATP
[3] = molecular target: PCAT1(C21A) (Clostridium thermocellum) (UniProt A3DCU1); experiment: native MS; in 200 mM ammonium acetate pH 7.5 with 0.058% UDM (2X CMC); 4 µM PCAT1 monomer alone, or 4 µM PCAT1(C21A) monomer + 8 µM CtA (two-fold excess of CtA); abundances corrected for gas-phase dissociation
[4] = molecular target: wt PCAT1 (Clostridium thermocellum) (UniProt A3DCU1); experiment: native MS; in 200 mM ammonium acetate pH 7.5 with 0.5% C8E4 (2X CMC); 4 µM PCAT1 monomer alone, or 4 µM PCAT1(C21A) monomer + 8 µM CtA (two-fold excess of CtA); abundances corrected for gas-phase dissociation
[5] = molecular target: wt PCAT1 (Clostridium thermocellum) (UniProt A3DCU1); experiment: native MS; in 200 mM ammonium acetate pH 7.5 with 0.058% UDM (2X CMC); 4 µM PCAT1 monomer alone, or 4 µM PCAT1(C21A) monomer + 8 µM CtA (two-fold excess of CtA); abundances corrected for gas-phase dissociation

% abundance of the C21A-PCAT1 dimer + 1 CtA complex [1]: 16%
% abundance of the C21A-PCAT1 dimer + 2 CtA complex [1]: 84%
stoichiometry N (CtA per PCAT1 dimer) [1]: 2
stoichiometry N (CtA per PCAT1 transporter) [2]: 2
% abundance of the C21A-PCAT1 dimer + 1 CtA complex [3]: 25%
% abundance of the C21A-PCAT1 dimer + 2 CtA complex [3]: 75%
stoichiometry N (CtA per PCAT1 dimer) [3]: 2
Substance: CtA (natural protein)

stoichiometry N [1]: 2
stoichiometry N [3]: 2
Substance: PCAT1(C21A) (from UniProt A3DCU1 1-727) (natural protein)

stoichiometry N [4]: 2
stoichiometry N [5]: 2
Substance: wt PCAT1 (from UniProt A3DCU1 1-727) (natural protein)
